How the values were obtained:
Conditions in all cases: both partners purified
[1] = molecular target: T1, GFP-NBR1 (recombinant, purified) (UniProt Q14596 1-966); assay: microscopy-based protein-protein interaction assay (beads); 2.5 µM GST-TAX1BP1 (FL, domain, truncations, point mutants) as bait on GST beads; 1 µM GFP-NBR1 as prey; 25 mM HEPES pH 7.5, 150 mM NaCl, 1 mM DTT; 15-30 min at RT; confocal imaging
T1 construct: NBR1; source: HEK293 (pCAGGSsH-C vector, VBCF ProTech facility), purified as described previously; not shown: GFP, N-terminal, kept
T1 sequence (looked up): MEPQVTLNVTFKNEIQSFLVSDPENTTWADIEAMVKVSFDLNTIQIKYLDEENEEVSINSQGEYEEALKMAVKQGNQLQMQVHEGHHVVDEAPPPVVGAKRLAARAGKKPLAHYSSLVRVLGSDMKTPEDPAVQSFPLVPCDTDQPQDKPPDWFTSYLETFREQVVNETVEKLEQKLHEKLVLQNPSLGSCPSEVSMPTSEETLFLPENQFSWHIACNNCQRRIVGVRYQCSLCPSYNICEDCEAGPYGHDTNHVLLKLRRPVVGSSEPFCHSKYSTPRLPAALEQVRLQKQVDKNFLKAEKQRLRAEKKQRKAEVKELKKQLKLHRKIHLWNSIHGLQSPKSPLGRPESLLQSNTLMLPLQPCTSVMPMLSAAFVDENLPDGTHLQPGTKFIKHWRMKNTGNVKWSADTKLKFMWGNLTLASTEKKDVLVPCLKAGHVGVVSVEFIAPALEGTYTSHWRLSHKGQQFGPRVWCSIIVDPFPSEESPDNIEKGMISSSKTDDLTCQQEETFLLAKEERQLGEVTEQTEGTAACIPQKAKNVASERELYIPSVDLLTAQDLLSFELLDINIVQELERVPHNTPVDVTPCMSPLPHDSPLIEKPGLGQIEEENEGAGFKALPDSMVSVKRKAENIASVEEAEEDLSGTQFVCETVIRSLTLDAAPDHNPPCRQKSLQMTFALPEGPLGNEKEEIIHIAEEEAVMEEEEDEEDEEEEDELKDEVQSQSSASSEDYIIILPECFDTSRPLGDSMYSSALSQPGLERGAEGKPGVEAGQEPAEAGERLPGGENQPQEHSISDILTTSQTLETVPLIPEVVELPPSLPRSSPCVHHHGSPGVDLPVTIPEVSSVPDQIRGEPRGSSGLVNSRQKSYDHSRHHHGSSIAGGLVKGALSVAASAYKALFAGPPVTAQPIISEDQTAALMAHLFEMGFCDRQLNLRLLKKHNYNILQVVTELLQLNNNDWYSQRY

[2] = molecular target: T2, NBR1 (untagged, recombinant) (UniProt Q14596 1-966); assay: in vitro condensation assay (recruitment to p62 condensates, microscopy); 2 µM mCherry-p62 S403E, 1 µM NBR1 (or without NBR1), 2 µM GFP-TAX1BP1 (FL, ΔN or ΔZnF; N domain) in 25 mM HEPES pH 7.5, 150 mM NaCl, 1 mM DTT; condensation triggered with 5 µM GST-4xUB; spinning disk microscopy
T2 construct: NBR1; source: HEK293 (pCAGGSsH-C vector, VBCF ProTech facility), purified as described previously
T2 sequence (looked up): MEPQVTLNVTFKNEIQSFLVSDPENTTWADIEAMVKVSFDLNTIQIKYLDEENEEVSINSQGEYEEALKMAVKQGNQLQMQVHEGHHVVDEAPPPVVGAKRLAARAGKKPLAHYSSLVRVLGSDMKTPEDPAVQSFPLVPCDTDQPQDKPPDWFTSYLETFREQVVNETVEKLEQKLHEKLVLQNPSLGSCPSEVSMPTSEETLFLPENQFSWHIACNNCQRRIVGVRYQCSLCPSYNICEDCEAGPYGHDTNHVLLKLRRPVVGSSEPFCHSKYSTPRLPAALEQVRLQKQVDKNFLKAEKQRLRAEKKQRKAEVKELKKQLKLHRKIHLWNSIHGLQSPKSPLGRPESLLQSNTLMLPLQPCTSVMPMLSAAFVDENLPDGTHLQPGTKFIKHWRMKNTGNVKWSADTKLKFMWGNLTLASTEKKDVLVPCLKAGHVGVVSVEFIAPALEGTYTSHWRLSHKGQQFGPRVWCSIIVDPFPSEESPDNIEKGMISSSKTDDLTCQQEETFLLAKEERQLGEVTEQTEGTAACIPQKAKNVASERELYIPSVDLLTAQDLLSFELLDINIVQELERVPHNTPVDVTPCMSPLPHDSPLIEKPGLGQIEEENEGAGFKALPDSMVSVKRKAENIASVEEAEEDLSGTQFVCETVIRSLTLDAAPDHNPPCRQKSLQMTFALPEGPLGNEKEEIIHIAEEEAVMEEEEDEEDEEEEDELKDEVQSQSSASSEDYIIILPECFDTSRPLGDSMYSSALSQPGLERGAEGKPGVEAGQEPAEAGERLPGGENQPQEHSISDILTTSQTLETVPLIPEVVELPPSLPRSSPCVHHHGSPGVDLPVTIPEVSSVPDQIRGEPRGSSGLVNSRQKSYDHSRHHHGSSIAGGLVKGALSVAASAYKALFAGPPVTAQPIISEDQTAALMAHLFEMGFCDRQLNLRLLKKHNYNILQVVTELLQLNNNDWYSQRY

[3] = molecular target: T3, 10x-His-mCherry-TAX1BP1 (full length, FL) (UniProt Q86VP1 1-789); assay: microscopy-based protein-protein interaction assay (beads); mCherry-TAX1BP1 FL or ΔN on RFP-trap beads; GFP tagged NBR1 fragment CC2-LIR1 as prey
T3 construct: TAX1BP1, full length (FL); also called mCh-TAX1BP1; mCherry-TAX1BP1 FL; source: Sf9 insect cells (pLIB vector, baculovirus), purified as described previously; not shown: mCherry, N-terminal, kept
T3 sequence (Q86VP1 whole entry, the tested form may be a part): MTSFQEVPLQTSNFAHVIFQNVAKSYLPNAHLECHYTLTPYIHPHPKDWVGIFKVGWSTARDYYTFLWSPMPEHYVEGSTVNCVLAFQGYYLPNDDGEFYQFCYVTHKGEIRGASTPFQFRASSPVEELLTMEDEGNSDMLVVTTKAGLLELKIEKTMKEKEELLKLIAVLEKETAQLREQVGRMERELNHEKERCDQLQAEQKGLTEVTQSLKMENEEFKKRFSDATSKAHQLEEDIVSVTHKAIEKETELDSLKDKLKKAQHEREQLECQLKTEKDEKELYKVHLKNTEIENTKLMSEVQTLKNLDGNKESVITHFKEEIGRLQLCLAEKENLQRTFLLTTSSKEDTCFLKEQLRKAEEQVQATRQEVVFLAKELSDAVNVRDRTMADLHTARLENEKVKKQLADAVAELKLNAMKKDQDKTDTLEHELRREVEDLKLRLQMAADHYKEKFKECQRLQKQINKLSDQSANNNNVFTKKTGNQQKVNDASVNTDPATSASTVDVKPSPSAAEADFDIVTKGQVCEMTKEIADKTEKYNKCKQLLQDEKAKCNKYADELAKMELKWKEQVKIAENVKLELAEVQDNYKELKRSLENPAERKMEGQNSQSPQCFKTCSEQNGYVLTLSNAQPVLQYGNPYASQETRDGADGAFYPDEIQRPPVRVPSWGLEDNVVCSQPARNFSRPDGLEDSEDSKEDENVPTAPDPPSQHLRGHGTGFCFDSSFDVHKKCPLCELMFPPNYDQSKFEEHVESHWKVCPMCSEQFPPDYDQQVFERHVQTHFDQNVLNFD

B1: GST-N domain (aa420-506 of TAX1BP1) (domain or fragment, UniProt Q86VP1 420-506, looked up)
chain: DQDKTDTLEHELRREVEDLKLRLQMAADHYKEKFKECQRLQKQINKLSDQSANNNNVFTKKTGNQQKVNDASVNTDPATSASTVDVK
- binding result [1]: binds

B2: GFP-N-domain (aa420-506 of TAX1BP1) (domain or fragment, UniProt Q86VP1 420-506, looked up)
chain: DQDKTDTLEHELRREVEDLKLRLQMAADHYKEKFKECQRLQKQINKLSDQSANNNNVFTKKTGNQQKVNDASVNTDPATSASTVDVK
notes: TAX1BP1 N-domain, aa420-506; Cloned into pGEX-4T1; the methods name the purified protein GFP-N domain and give elution either by TEV cleavage or by glutathione; also called N-domain alone; isolated N-domain; source: E. coli Rosetta (pGEX-4T1), purified (GST beads, SEC); not shown: GFP, N-terminal, kept
- binding result [2]: binds

B3: GFP-CC2-LIR1 (NBR1 aa685 - aa757) (domain or fragment, UniProt Q14596 685-757, looked up)
chain: LGNEKEEIIHIAEEEAVMEEEEDEEDEEEEDELKDEVQSQSSASSEDYIIILPECFDTSRPLGDSMYSSALSQ
notes: NBR1 fragment CC2-LIR1, aa685-757; The methods name the purified protein GST-GFP-CC2-LIR1 and give elution either by TEV cleavage or by glutathione; also called GST-GFP-CC2-LIR1; GFP tagged NBR1 fragment (CC2-LIR2); source: E. coli Rosetta (pGEX-4T1), purified (GST beads, SEC); not shown: GFP, N-terminal, kept
- binding result [3]: binds

— publication doi:10.1101/2024.05.17.594671, “Mechanism of TAX1BP1 recruitment in aggrephagy to switch from cargo collection to sequestration” (bioRxiv, 2024)
